Source: the RNAGym collection of RNA variant scans (doi:10.1073/pnas.2313332121)

B1: TPR t1 (parent)
chain: GACCAAUCUGCCCUCAGAGCUCGAGAACAUCUUCGGAUGCAGAGGAGGCAGGCUUCGGUGGCGCGAUAGCGCCAACGUCCUCAACCUCCAAUGCAUCCCACCACAUGAUGAUGCCUGAAGAGCCUUGGUUUUUUG

Variants of: B1
Test: polymerase ribozyme fitness, log enrichment relative to wild type (log ratio); higher = more active; in vitro selection for triplet polymerase activity
Method in brief: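 To select mutant libraries of each subunit of a heterodimeric triplet polymerase ribozyme, built by PCR and transcribed, each was annealed with a biotinylated primer, partner subunit and triplets, then incubated frozen at −7 °C. Extended constructs were gel-excised, captured on streptavidin beads and amplified by RT-PCR, in one round carried out in triplicate. Illumina sequencing of input and output libraries kept genotypes with ≥10 input reads and ≥1 read per output. Fitness is the base-2 logarithm of genotype enrichment relative to wild-type enrichment, from inverse-variance-weighted replicate averages.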

Variant	polymerase ribozyme fitness (log ratio)
GACCAAUCUGCCCUCAGAGCUCGAGAACAUCUUCGGAUGCAGAGGAGGCAGGCUCCGGUGGCGCGAUAGCGCCAACGUCCUCAACCUCCAAUGCAUCCCACCACAUGAUGAUGCGUGAAGAACCUUGGUUUUUUG [U55C C115G G122A]	-1.84
GACCAAUCUGCCCUCAGAGCUCCAGAACAUCUUCGGAUGCAGAGGAGGCAGGCUUCGGUGGCGCGAUAGCGCCAACGUCCUCAACCUCCAAUGCAUCCCACCACAUGAUGAUGCCUGAAAAGCCUUGGUUUUUUG [G23C G120A]	-5.95
GACCAAUCUGCCCUUAGAGCUCGAGAACAUCUUCGGAUGCAGAGGAGGCUGGCUUCGGUGGCGCGAUAGCGCUAACGUCCUCAACCUCCAAUGCAUCCCACCACAUGAUGAUGCCUGUAGAGCCUUAGUUUUUUG [C15U A50U C73U A118U G127A]	-5.35
GACCAAUCUGCCAUCAGAGCUCGAGAACAUCUUCGGAUGCAGACGAGGCAGGCUUCGGUGGCGCGAUAGCGCCAACGUCCUCAACCUCCAAUGCAUCCCACCACAUGAUGAUGCCGGAAGAGCGUUGGUUUUUUG [C13A G44C U116G C124G]	-2.72
GACCAAUCUGCCCUCAGAGCUCGAGAACAUCUUCGGGUGCAGAGGAGGCAGGCUUCGGUGGCUCGAUAGCGCCAACGUCCUCAACCUCCAAUGCAUCCCAGCAGAUGAUGAUGUCUGAAGAGCCUUGAUUUUUUG [A37G G63U C101G C104G C114U G128A]	-4.99
GACCAAUCUGCCCUCAUAGCUCGAGAACAUCUUCGGAUGCAGAGGAGGCAGGCUUCGGUGGCGCGAUAGCGCCAACGUCCUCAACCUCCAAUGCAUCCCACCACAUGAUGAUGCCUGAAGAGCCUUGGUUUUUUG [G17U]	-2.29
GACCAAUCUGCCCUCAGAGCUCGAGAACAUCCUCGGAUGCAGAGGAGGCAGGCUUCGGUGGCGCGAUAGCGCCAACGCCCUCAACCUCAAAUGCAUCCCACCACAUGAUGAUGCCUGAAGAGCCUUGGUUUUUUG [U32C U78C C89A]	-1.52
GACCAAUCUGCCCUCAGAGCUCGAGAACAUCUUCGGAUGCAGAGGAGGCUGGAAUCGGUGGCGCGAUAGCGCCAACGUCCUCAACCUCCAAUUCAUCCCACCACUUGAUGAUGCCUGAAGAGCCUUGGUUUUUUG [A50U C53A U54A G93U A105U]	-3.45
GACCAAUCUGCCCUCAGAGCUCGAGAACAUCUUCGGAUGCAGAGGAGGCAGGCUUCGGUGGCGCGAUAGCGCCAACGUCCUCAACCUCCAAUGCAUCCCACCACAUGAUGAUUCCUGAAGAGCCUUGUUUUUUUG [G113U G128U]	-4.72
GACCAAUCUGCCCUCAGAGCUCGAGAACAUCUACGGUUGCAGAGGAGGCAGGCUCCGGUGGCGCGAUAGCGCCAACGUCCUCAACCUCCAAUGCAUCCCCCCACAUGAUGAUGCCUGAAGAGCCUUGGUUUUUUG [U33A A37U U55C A100C]	-6.04
GACCAAUCUGCCCUCAGAGCUCGAGAACAUCUUCGGAUGCAGAGGAGGCAGGCUUCGGUGGAGCGAUAGCGCCAACGUCCUCAACCUCCAAUGCAGCCCACCACAUGAUGAUGCCUGAAGAGCCUUGGUUUUUUG [C62A U96G]	-1.8
GACCAAUCUGCCCUCAGAGCUCGAGAACAUCUUCGGAUGCAGAGGAGGCAGGCUUCGGUGGCGCGAUAGCGCCAACGUCCUCAACCUUGAAGGCAUCCCACCACAUGAUGAUGCCUGAAGAGCCUUGGUUUUUUG [C88U C89G U92G]	-2.44
GACCAAUCUGCCCUCAGAGCUCGAGAACAUCUUCGGAUGCAGAGGAGGCGGGCUUCGGUGGCGCGAUAGCGCCAACAUCCUCAACCUCCAAUGCAUCCCACCACAUGAUGAUGCCUGAAGAGCCUUGGUUUUUUG [A50G G77A]	-0.057
GACCAAUCUGCCCUCAGAGCUCGAGAACGUCUUCGGAUGCAGAGGAGGCAGGCUUCGGUGGCGCGAUAGCGCCAACGUCCUCAACCUCCAAUGCAUCCCACCAAAUGAUGAUGCCUCAAGAGCCUUGGUUCUUUG [A29G C104A G117C U131C]	-6
GACCAAUCUGCCCUCAGAGCUCGAGAACAUCUUCGGAUGCAGAGGAGCCAGGCUUCGGUGGCGCGAUAGCGCCAACGUCCUCAACCUCCAAUGCAUCCCACCAUAUGAUGAUGCCUGAAGAGCCUUGGUUUUUUU [G48C C104U G135U]	-1.53
GACCAAUCUGCCUUCAGAGCUCGAGAAGAUCUUCGGAUGCAGAGGAGGUAGGCUUCGGUGGCGCGAUAUCGCCAACGUCCUCAACCUCCAAUGCAUCCCACCACAUGAUGAUGCCUGAAGAGCCUUGGUUUUUUG [C13U C28G C49U G69U]	-1.49
GACCAAUCUGCCCUCAGAGCUCGAGAACAUCUUCGGAUGCAGAGGAGGCCGGCUUCGGUGGCGCGAUAGCGCCAACGUCCUCAACCUCCAAAGCAUCCCACCACAUGAUGAUGCCUGAAGAGCCUUGGUUUUUUG [A50C U92A]	-3.05
GACCAAUCUGCGCUCAGAGCUCGAGAACAUCUUCGGAUGCAGAGGAGGCAGGCUUCGGUGGCGCGAUAGCGCCAACGUCCUCAACCUCCAAUGCAUCCCACCACAUGAUGAUGCCUGAAGAGCCUUGGUUUUUUG [C12G]	0.29
GACCAAUCUGCCCUCAGAGCUCGAGAACAUCUUCGGAUGCAGAGGAGGCAGGCUUCGGUGGCGCGAUAACGCCAACGUCCUCAACCUCCAAUGCAGCCCACCACAUGAUGAUGCCUGAAGCGCCUUGGUUUUUUG [G69A U96G A121C]	-1.72
GACCAUUCUGCCCUCAGAGCUCGAGAACAUCUUCGGAUGCAGAGGAGGCAGGCUUCGGUAGCGCGAUAGCGCCAACGUCCACAACCUCCAAUGCAUCCUACCACAUGAUGAUGCCUGAAGAGCCUUGGUUUUUUG [A6U G60A U81A C99U]	-5.5
GACCCAUCUGCCCUCAGAGCUCGAGAACAUCUUCGGAUGCAGAGGAGGCAGGGUUCGGUGGCGUGAUAGCGCCAACGUCCUCAACCUCCAAUGUAUCCCACCACAUGAUGAUGCCUGAAGAGCCUUGGUUUUUUG [A5C C53G C64U C94U]	-1.07
